According to PMC12233901, “Resolving the APN controversy in PEDV infection: Comparative kinetic characterization through single-virus tracking” (PLOS Pathogens, 2025):

Target: T1, porcine aminopeptidase N (pAPN) fused with a hFc tag (porcine, UniProt P15145)
T1 construct: also called porcine APN; source: HEK293T cell expression system, expressed and purified
T1 sequence: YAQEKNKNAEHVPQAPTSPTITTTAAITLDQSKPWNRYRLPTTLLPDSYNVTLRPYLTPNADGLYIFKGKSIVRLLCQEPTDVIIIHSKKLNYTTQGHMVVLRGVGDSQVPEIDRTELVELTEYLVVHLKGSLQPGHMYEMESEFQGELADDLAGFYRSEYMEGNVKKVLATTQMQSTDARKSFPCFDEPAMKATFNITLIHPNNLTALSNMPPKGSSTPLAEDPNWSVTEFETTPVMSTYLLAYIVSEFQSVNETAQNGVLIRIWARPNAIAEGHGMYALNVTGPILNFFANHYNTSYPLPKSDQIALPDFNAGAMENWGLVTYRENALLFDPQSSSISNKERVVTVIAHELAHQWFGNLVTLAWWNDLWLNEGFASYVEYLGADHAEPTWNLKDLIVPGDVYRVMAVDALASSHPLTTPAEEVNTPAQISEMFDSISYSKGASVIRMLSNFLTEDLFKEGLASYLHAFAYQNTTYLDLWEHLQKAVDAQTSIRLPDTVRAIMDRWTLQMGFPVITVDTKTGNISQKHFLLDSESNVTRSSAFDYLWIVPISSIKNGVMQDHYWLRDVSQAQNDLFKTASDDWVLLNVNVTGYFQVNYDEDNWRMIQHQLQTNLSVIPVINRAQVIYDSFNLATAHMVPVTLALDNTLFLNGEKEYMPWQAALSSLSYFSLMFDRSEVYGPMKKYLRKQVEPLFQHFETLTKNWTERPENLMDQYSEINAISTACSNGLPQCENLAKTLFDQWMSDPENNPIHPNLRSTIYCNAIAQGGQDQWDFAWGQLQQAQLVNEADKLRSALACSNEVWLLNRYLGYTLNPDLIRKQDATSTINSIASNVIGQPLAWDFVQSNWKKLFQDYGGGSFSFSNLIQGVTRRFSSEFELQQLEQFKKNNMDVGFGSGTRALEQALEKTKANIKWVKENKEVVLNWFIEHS
Assay: SPR; […]; Biacore 8K, room temperature
Settings: both partners purified

B1: PEDV S1 protein with a C-terminal His tag (domain or fragment)
chain: CQSTTNFRRFFSKFNVQAPAVVVLGGYLPSMNSSSWYCGTGIETASGVHGIFLSYIDSGQGFEIGISQEPFDPSGYQLYLHKATNGNTNAIARLRICQFPDNKTLGPTVNDVTTGRNCLFNKAIPAYMRDGKDIVVGITWDNDRVTVFADKIYHFYLKNDWSRVATRCYNRRSCAMQYVYTPTYYMLNVTSAGEDGIYYEPCTANCTGYAANVFATDSNGHIPEGFSFNNWFLLSNDSTLLHGKVVSNQPLLVNCLLAIPKIYGLGQFFSFNHTMDGVCNGAAVDRAPEALRFNINDTSVILAEGSIVLHTALGTNLSFVCSNSSDPHLAIFAIPLGATEVPYYCFLKVDTYNSTVYKFLAVLPPTVREIVITKYGDVYVNGFGYLHLGLLDAVTINFTGHGTDDDVSGFWTIASTNFVDALIEVQGTSIQRILYCDDPVSQLKCSQVAFDLDDGFYPISSRNLLSHEQPISFVTLPSFNDHSFVNITVSAAFGGLSSANLVASDTTINGFSSFCVDTRQFTITLFYNVTNSYGYVSKSQDSNCPFTLQSVNDYLSFSKFCVSTSLLAGACTIDLFGYPAFGSGVKLTSLYFQFTKGELITGTPKPLEGITDVSFMTLDVCTKYTIYGFKGEGIITLTNSSILAGVYYTSDSGQLLAFKNVTSGAVYSVTPCSFSEQAAYVNDDIVGVISSLSNSTFNNTRELPGFFYH
Kd: 47.5 µM

B2: TGEV S1 protein with a C-terminal His tag (domain or fragment)
chain: IGNHWNLIETFLLNYSSRLPPNSDAVLGDYFPTVQPWFNCIRNNSNDLYVTLENLKALYWDYAIENITSNHKQRLNVVVNGYPYSITVTTTRNFNSAEGAIICICKGSPPTTTTESSLTCNWGSECRLNHKFPICPSNSEANCGNMLYGLQWFADAVVAYLHGASYRISFENQWSGTVTLGDMRATTLETAGTLVDLWWFNPVYDVSYYRVNNKNGTTVVSNCTDQCASYVANVFTTQPGGFIPSDFSFNNWFLLTNSSTLVSGKLVTKQPLLVNCLWPVPSFEEAASTFCFEGAGFDQCNGAVLNNTVDVIRFNLNFTTNVQSGKGATVFSLNTTGGVTLEISCYNDTVSDSSFSSYGEMPFGVTDGPRYCYVLYNGTALKYLGTLPPVVKEIAISKWGHFYINGYNFFSTFPIDCISFNLTTGDSDVFWTIAYTSYTEALVQVENTAITKVTYCNSYVNNIKCSQLTANLNNGFYPVSSSEVGLVNKSVVLLPSFYTHTIVNITIGLGMKRSGYGQPIASTLSNITLPMQDDNTDVYCIRSDQFSVYVHSTCKSALWDNVFKRNCTDVLDATAVIKTGTCPFSFAKLNNYLTFNKFCLSLSPVGANCKFDVAARTRTNDQVVRSLYVIYEEGDNIVGVPSDNSGLHDLSVLHLDSCTDYNIYGRTGVGIIRQTNRTLLSGLYYTSLSGDLLGFKNVSDGVIYSVTPCDVIAQAAVIDGTIVGAITSINSELLGLTHWTTTPNFYYY
Kd: 0.392 µM
